Test results published in patent publication US20150284465A1 (Chugai, published 2015).
Substitutions are numbered along the chain they refer to. Where two headings read alike, the source gives them in different places. Blank lines part the entries; values can stand above or below the binder they belong to.

Assays:
[1] = target: T1, SR344 (N-terminal 1st to 344th amino acids of soluble human IL-6R) (human, UniProt P08887 20-344, limits assumed); test: SPR (Biacore T100), antibody captured on Protein A, soluble human IL-6 receptor as analyte
T1 construct: also called recombinant soluble IL-6 receptor; soluble human IL-6 receptor
T1 sequence (looked up): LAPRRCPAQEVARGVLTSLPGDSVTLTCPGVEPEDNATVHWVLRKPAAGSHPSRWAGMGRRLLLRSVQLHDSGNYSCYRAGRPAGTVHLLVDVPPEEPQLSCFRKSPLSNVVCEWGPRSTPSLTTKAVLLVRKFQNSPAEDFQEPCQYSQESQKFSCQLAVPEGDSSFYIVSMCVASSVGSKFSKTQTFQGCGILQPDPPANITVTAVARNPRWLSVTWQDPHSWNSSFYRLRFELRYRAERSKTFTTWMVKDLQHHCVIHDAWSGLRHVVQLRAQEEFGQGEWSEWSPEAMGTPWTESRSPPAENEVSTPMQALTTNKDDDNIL
Procedure: The antigen-antibody reaction kinetics between anti-human IL-6 receptor antibody and soluble human IL-6 receptor was analyzed using Biacore T100 (GE Healthcare Biosciences). The antigen-antibody interaction was measured by immobilizing rec-Protein A (Zymed) (hereinafter “Protein A”) onto a sensor chip, capturing an antibody with the immobilized Protein A, and then reacting the antibody with the antigen as an analyte using a method known to those skilled in the art. The running buffer used was HBS-EP+, and the flow rate was 20 μl/min. Each antibody was prepared so that about 100 RU of the antibody was bound to Protein A/G. Soluble human IL-6 receptor was prepared at 0, 0.065, 0.131, and 0.261 μg/ml using HBS-EP+ and used as an analyte. In the first step of the measurement, the antibody in solution was bound to Protein A/G, and the analyte solution was allowed to interact with the antibody. After three minutes of interaction, the solution was switched to HBS-EP+, and the dissociation phase was monitored for 10 or 15 minutes. After measurement of the dissociation phase, the sensor chip was regenerated by washing with 10 μl of 10 mM glycine-HCl (pH 1.5). The association, dissociation, and regeneration constitute one analysis cycle. Each antibody was measured according to this cycle. The obtained sensorgrams were kinetically analyzed using the Biacore-specific data analysis software, Biacore T100 Evaluation Software (GE Healthcare Biosciences).

[2] = target: T2, soluble human FcRn (complex of FcRn and β2-microglobulin) (human, UniProt P55899 24-290; P16213 21-119); test: SPR (Biacore 3000), antibody captured on Protein L or anti-human kappa chain antibody, human FcRn as analyte, pH 6.0, steady state affinity
T2 construct: also called hFcRn; copies: 1 + 1
Procedure: (§1) The binding to human FcRn was assessed using Biacore 3000. An antibody was bound to Protein L or rabbit anti-human IgG Kappa chain antibody immobilized onto a sensor chip, human FcRn was added as an analyte for interaction with the antibody, and the affinity (KD) was calculated from the amount of bound human FcRn. Specifically, Protein L or rabbit anti-human IgG Kappa chain antibody was immobilized onto sensor chip CM5 (Biacore) by the amine coupling method using 50 mM Na-phosphate buffer (pH 6.0) containing 150 mM NaCl as the running buffer. Then, an antibody was diluted with a running buffer containing 0.02% Tween20, and injected to be bound to the chip. Human FcRn was then injected and the binding activity of the human FcRn to antibody was assessed.
(§2) The affinity was computed using BlAevaluation Software. The obtained sensorgram was used to calculate the amount of hFcRn bound to the antibody immediately before the end of human FcRn injection. The affinity of the antibody for human FcRn was calculated by fitting with the steady state affinity method.

[3] = target: T2, soluble human FcRn (complex of FcRn and …); test: as above; remark: listed apart in the source
Procedure: as §1, §2

[4] = target: T3, human-derived Fcγ receptor IIb (Recombinant Human FcRIIB/C, R&D systems) (human, UniProt P31994 46-217, limits assumed); test: SPR (Biacore T100), FcγRIIb immobilized on CM5, antibody as analyte at 200 µg/ml, 25 C
T3 construct: Bought recombinant protein, construct not described; also called FcγRIIb
T3 sequence (looked up): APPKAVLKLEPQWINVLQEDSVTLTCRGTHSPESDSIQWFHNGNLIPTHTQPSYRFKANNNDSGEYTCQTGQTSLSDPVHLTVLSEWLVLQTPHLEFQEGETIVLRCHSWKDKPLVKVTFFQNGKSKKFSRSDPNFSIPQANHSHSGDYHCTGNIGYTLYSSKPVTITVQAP
Procedure: The FcγRIIb binding was assessed by the procedure described below. […] The amounts of bound antibody were compared. […] FcγRIIb was immobilized onto the sensor chip CM5 (Biacore) by the amine coupling method. The final amount of immobilized FcγRIIb was about 4,300 RU. Then, the running buffer was injected until the baseline was stabilized. The measurement was carried out after the baseline was stabilized. […] The running buffer used was HBS-EP+ (10 mM HEPES, 0.15M NaCl, 3 mM EDTA, 0.05% v/v Surfactant P20), and the flow rate was 20 μl/min. The measurement temperature was 25° C. The concentration of each IgG or modified form thereof was adjusted to 200 μg/ml. 20 μl of an analyte was injected and allowed to interact with the immobilized FcγRIIb. After interaction, the analyte was dissociated from FcγRIIb and the sensor chip was regenerated by injecting 200 μl of the running buffer. […] This series of injection was repeated twice.

[5] = target: T4, hFcγRIIIaV-His6 (human-derived Fcγ receptor IIIa, Val) (human, UniProt P08637 17-208, limits assumed); test: SPR (Biacore T100), hFcγRIIIaV-His6 immobilized on CM5, antibody as analyte at 250 µg/ml
T4 construct: also called FcγRIIIa (Val); not shown: His6 tag
T4 sequence (P08637 17-208 F176V limits assumed): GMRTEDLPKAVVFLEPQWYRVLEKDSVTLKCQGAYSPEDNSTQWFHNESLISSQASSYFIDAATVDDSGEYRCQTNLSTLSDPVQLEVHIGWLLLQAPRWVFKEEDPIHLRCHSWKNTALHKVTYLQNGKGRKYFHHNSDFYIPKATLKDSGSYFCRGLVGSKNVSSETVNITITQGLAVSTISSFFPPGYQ
Procedure: The FcγRIIIa binding was assessed by the procedure described below. […] The amounts of bound antibody were compared. […] FcγRIIIa was immobilized onto the sensor chip CM5 (Biacore) by the amine coupling method. […] The running buffer used was HBS-EP+, and the flow rate was 5 μl/min. The sample concentration was adjusted to 250 μg/ml using HBS-EP+. The analysis included two steps: two minutes of association phase where 10 μl of an antibody solution was injected and the subsequent four minutes of dissociation phase where the injection was switched with HBS-EP+. After the dissociation phase, the sensor chip was regenerated by injecting 20 μl of 5 mM hydrochloric acid. The association, dissociation, and regeneration constitute one analysis cycle. Various antibody solutions were injected to obtain sensorgrams. […] 1999 August; 29(8):2613-24.

[6] = target: T2, soluble human FcRn (complex of FcRn and …); test: SPR (Biacore 3000), human FcRn as analyte, pH 6.0

Kd [1]: 0.052 nM
B1: 6R_a_H3L3 (antibody, human IgG1, kappa, V domains shown)
VH: QVQLQESGPGLVKPSETLSLTCAVSGYSISDDHAWSWVRQPPGEGLEWIGYISYSGITNYNPSLQDRVTISRDNSKNTLYLQMNSLRAEDTAVYYCARLLARATAMDYWGQGILVTVSS
VL: DIQMTQSPSSLSASVGDSVTITCQASEDISSYLNWYQQKPGKAPELLIYYGSELESGVPSRFSGSGSGTDFTFTISSLEAEDAATYYCGQGNRLPYTFGQGTKVEIER

Kd [2]: 1070 nM
B2: anti-IL-31 receptor antibody H0L0 with IgG1 constant region (antibody)
heavy: not shown
VL: DIQMTQSPSSLSASVGDRVTITCRTSENIYSFLAWYQQKPGKAPKLLIYNAKTLAKGVPSRFSGSGSGTDFTLTISSLQPEDFATYYCQHHYESPLTFGGGTKVEIK
notes: Not the anti-glypican 3 antibody of the same name; also called H0L0 (IgG1)

Kd [2]: 910 nM
B3: anti-IL-31 receptor antibody H0L0 with M58 constant region (antibody)
heavy: QVQLVQSGAEVKKPGASVKVSCKASGYTFTGYIMNWVRQAPGQGLEWMGLINPYNGGTSYNQKFKGRVTITADESTSTAYMELSSLRSEDTAVYYCARDGYDDGPYTMDYWGQGTLVTVSASTKGPSVFPLAPSSKSTSGGTAALGCLVKDYFPEPVTVSWNSGALTSGVHTFPAVLQSSGLYSLSSVVTVPSSNFGTQTYTCNVDHKPSNTKVDKTVERKSCVECPPCPAPPVAGPSVFLFPPKPKDTLMISRTPEVTCVVVDVSQEDPEVQFNWYVDGVEVHNAKTKPREEQFNSTFRVVSVLTVVHQDWLNGKEYKCKVSNKGLPAPIEKTISKTKGQPREPQVYTLPPSQEEMTKNQVSLTCLVKGFYPSDIAVEWESNGQPENNYKTTPPMLDSDGSFFLYSKLTVDKSRWQEGNVFSCSVMHEALHNHYTQKSLSLSP
VL: B2 VL
notes: also called H0L0 (M58)

Kd [3]: 1850 nM
binding result [4]: binds
binding result [5]: binds
B4: WT-M14ΔGK (antibody)
heavy: QVQLQESGPGLVRPSQTLSLTCTVSGYSITSDHAWSWVRQPPGRGLEWIGYISYSGITTYNPSLKSRVTMLRDTSKNQFSLRLSSVTAADTAVYYCARSLARTTAMDYWGQGSLVTVSSASTKGPSVFPLAPSSKSTSGGTAALGCLVKDYFPEPVTVSWNSGALTSGVHTFPAVLQSSGLYSLSSVVTVPSSNFGTQTYTCNVDHKPSNTKVDKTVERKSCVECPPCPAPPVAGPSVFLFPPKPKDTLMISRTPEVTCVVVDVSHEDPEVQFNWYVDGVEVHNAKTKPREEQFNSTFRVVSVLTVVHQDWLNGKEYKCKVSNKGLPSSIEKTISKAKGQPREPQVYTLPPSREEMTKNQVSLTCLVKGFYPSDIAVEWESNGQPENNYKTTPPVLDSDGSFFLYSKLTVDKSRWQQGNVFSCSVMHEALHNHYTQKSLSLSP
light: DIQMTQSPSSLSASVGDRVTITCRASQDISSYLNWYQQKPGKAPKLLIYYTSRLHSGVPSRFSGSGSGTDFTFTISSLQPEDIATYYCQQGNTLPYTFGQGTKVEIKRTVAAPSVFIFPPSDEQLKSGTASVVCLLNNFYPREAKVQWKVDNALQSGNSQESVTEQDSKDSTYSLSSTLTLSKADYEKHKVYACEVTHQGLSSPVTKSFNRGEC

binding activity relative to WT-IgG1 [6]: ~1.4 fold
Kd [3]: 1170 nM
Kd [2]: 1030 nM
B5: WT-M58 (antibody)
heavy: B4 heavy with H266Q, S328A, S329P, A337T, R353Q, V395M, Q417E
light: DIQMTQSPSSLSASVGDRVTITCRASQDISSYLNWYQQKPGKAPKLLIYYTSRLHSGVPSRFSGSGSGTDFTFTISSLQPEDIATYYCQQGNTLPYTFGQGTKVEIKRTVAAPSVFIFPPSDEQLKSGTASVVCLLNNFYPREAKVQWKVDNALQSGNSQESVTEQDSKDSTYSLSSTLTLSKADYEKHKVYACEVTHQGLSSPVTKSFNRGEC
notes: also called M58 (WT)

binding activity relative to WT-IgG1 [6]: ~3.8 fold
Kd [3]: 420 nM
B6: WT-M73 (antibody)
heavy: B4 heavy with H266Q, S328A, S329P, A337T, R353Q, V395M, Q417E, N432A
light: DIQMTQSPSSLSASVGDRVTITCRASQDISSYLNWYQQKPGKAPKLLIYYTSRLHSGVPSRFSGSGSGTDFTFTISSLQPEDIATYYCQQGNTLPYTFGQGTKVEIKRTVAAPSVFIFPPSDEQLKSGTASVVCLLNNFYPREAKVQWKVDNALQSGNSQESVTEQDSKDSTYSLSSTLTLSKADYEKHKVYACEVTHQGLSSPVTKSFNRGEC

Kd [1]: 0.067 nM
B7: 6R_a_H1L1 (antibody, human IgG1, kappa, V domains shown)
VH: QVQLQESGPGLVRPSQTLSLTCTVSGYSITSDHAWSWVRQPPGRGLEWIGYISYSGITTYNPSLKSRVTMLRDTSKNQFSLRLSSVTAADTAVYYCARVLARITAMDYWGQGSLVTVSS
VL: DIQMTQSPSSLSASVGDRVTITCRASQDISSYLNWYQQKPGKAPKLLIYYTSRLHSGVPSRFSGSGSGTDFTFTISSLQPEDIATYYCGQGNRLPYTFGQGTKVEIKR
notes: Anti-human IL-6 receptor antibody

Kd [1]: 0.03 nM
B8: 6R_a_H2L2 (antibody, human IgG1, kappa, V domains shown)
VH: QVQLQESGPGLVKPSETLSLTCAVSGYSISDDHAWSWVRQPPGEGLEWIGYISYSGITNYNPSLKGRVTISRDTSKNQFSLKLSSVTAADTAAYYCARVLARITAMDYWGEGTLVTVSS
VL: B1 VL with E27Q, E55H
